T1: MKK6(h) (human, UniProt P52564 1-334)
T1 sequence (looked up): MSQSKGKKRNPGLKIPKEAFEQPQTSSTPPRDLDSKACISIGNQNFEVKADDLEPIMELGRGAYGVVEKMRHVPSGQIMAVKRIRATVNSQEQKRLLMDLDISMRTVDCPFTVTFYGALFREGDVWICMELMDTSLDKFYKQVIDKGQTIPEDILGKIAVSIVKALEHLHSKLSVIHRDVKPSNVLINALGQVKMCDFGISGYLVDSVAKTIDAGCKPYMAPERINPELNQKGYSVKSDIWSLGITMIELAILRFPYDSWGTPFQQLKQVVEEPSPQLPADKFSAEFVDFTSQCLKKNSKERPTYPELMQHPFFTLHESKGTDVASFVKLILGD

T2: Fms(h) (human, UniProt P07333 538-972, limits assumed)
T2 sequence (looked up): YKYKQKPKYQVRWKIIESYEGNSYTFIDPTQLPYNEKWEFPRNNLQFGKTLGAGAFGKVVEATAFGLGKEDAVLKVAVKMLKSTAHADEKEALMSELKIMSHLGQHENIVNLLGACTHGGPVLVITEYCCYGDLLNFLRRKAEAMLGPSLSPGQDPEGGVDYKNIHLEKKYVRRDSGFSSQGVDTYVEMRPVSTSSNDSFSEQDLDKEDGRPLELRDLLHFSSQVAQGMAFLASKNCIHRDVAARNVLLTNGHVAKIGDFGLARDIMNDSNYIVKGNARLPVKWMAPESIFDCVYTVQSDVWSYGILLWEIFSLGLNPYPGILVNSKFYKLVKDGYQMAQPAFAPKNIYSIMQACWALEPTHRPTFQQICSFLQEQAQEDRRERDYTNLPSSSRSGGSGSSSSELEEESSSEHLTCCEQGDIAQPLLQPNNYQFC

T3: EphB3(h) (human, UniProt P54753 581-998, limits assumed)
T3 sequence (looked up): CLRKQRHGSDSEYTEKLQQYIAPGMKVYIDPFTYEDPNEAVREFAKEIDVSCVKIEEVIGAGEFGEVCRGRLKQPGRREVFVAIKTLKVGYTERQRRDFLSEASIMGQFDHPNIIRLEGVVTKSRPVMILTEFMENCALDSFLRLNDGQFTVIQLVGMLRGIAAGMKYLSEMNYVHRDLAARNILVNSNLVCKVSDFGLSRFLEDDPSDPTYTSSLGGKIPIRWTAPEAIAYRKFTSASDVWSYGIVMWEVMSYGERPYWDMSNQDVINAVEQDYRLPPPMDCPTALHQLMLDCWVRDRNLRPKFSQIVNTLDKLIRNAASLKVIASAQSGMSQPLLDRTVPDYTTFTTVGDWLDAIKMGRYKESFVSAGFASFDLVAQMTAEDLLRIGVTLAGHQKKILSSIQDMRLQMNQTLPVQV

T4: Itk(h) (human, UniProt Q08881 352-620, limits assumed)
T4 sequence (looked up): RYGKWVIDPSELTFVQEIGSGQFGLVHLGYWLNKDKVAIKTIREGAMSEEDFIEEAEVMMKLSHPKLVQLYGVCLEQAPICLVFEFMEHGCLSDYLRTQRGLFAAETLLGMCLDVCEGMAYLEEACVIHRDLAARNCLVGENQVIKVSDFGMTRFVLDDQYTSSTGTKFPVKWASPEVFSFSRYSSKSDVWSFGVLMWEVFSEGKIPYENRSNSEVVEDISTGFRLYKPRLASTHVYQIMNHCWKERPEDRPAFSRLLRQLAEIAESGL

T5: SGK3(h) (human, UniProt Q96BR1 1-496, limits assumed)
T5 sequence (looked up): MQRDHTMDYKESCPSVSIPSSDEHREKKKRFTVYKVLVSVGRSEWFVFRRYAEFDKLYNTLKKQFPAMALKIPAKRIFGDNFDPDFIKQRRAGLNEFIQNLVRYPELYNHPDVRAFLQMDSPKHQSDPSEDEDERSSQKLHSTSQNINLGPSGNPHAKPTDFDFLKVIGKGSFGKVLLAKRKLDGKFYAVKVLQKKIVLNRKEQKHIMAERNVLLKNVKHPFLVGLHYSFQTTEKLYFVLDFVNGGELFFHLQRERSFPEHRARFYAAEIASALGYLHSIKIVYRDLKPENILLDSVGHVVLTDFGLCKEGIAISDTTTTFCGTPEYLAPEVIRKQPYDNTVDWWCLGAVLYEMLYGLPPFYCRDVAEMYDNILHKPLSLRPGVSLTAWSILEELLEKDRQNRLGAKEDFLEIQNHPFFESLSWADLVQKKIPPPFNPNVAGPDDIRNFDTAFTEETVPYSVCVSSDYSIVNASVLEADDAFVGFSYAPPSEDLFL


Columns and labels:
Experiment in all cases: cell-based or functional assay
SIK(h) = SIK(h) (human, UniProt P57059 1-783, limits assumed)
Sequence of SIK(h) (P57059 whole entry): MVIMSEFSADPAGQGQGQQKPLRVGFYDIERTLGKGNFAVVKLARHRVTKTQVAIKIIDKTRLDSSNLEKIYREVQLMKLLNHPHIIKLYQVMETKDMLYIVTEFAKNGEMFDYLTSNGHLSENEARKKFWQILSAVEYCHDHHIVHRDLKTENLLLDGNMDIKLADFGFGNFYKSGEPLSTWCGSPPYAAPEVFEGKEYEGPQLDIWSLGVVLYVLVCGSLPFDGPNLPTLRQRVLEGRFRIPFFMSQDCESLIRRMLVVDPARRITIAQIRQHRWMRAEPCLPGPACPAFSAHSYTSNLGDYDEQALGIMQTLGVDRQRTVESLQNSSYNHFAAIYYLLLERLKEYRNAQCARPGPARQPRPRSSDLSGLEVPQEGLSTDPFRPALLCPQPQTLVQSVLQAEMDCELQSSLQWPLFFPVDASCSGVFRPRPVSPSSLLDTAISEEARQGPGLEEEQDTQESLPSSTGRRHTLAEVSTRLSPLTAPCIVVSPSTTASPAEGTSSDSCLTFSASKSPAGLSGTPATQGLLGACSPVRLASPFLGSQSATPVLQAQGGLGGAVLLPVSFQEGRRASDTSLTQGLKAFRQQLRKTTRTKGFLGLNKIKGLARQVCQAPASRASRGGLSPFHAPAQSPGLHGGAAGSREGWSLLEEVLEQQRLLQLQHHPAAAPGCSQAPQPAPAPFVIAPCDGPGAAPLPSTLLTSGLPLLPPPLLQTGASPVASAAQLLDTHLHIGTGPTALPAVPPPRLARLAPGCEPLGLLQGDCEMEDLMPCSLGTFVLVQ

PKBγ(h) = PKBγ(h) (human, UniProt Q9Y243 1-479, limits assumed)
MKK6(h) = target: T1, MKK6(h)
RIPK2(h) = RIPK2(h) (human, UniProt O43353 1-299, limits assumed)
Sequence of RIPK2(h) (O43353 1-299 limits assumed): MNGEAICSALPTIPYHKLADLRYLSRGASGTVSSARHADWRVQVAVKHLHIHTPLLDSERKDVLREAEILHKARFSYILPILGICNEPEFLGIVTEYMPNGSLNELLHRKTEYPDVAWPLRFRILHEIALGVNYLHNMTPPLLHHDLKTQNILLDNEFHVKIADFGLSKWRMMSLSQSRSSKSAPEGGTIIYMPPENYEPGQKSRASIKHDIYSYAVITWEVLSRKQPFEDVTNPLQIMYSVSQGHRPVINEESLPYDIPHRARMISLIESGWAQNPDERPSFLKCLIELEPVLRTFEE

Abl(Q252H)(h) = Abl(Q252H)(h) (human, UniProt P00519 27-1130, limits assumed)
Sequence of Abl(Q252H)(h) (P00519 27-1130 Q252H limits assumed): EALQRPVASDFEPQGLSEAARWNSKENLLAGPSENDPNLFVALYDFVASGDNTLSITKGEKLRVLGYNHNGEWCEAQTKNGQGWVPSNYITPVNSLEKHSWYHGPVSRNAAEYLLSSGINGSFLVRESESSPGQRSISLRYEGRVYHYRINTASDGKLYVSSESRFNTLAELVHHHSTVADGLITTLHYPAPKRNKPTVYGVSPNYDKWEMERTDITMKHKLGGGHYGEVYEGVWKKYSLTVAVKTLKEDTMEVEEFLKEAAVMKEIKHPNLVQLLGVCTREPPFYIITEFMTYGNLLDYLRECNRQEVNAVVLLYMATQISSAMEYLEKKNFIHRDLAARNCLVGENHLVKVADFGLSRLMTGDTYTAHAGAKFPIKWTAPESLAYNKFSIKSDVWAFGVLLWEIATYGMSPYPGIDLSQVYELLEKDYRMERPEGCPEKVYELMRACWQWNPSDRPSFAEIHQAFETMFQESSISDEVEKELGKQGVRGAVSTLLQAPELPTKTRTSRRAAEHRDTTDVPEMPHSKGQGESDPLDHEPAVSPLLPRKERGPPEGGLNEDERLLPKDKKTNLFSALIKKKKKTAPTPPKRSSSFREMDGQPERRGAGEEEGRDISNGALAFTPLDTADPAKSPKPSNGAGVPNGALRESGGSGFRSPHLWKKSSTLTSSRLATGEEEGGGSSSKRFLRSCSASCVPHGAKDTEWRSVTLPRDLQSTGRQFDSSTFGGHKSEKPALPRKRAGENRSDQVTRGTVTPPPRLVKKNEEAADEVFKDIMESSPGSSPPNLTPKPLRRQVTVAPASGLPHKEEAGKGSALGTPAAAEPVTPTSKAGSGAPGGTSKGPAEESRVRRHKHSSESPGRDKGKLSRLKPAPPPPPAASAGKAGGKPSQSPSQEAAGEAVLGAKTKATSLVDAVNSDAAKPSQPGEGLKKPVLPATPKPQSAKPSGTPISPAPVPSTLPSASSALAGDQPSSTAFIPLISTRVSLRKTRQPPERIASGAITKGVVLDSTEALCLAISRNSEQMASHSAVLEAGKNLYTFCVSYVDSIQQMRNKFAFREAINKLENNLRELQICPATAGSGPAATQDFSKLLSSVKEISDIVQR

CDK3/cyclinE(h) = CDK3/cyclinE(h) (human, UniProt Q00526 1-305; P24864 1-410)
Fms(h) = target: T2, Fms(h)
GSK3α(h) = GSK3α(h) (human, UniProt P49840 1-483)
Sequence of GSK3α(h) (P49840 whole entry): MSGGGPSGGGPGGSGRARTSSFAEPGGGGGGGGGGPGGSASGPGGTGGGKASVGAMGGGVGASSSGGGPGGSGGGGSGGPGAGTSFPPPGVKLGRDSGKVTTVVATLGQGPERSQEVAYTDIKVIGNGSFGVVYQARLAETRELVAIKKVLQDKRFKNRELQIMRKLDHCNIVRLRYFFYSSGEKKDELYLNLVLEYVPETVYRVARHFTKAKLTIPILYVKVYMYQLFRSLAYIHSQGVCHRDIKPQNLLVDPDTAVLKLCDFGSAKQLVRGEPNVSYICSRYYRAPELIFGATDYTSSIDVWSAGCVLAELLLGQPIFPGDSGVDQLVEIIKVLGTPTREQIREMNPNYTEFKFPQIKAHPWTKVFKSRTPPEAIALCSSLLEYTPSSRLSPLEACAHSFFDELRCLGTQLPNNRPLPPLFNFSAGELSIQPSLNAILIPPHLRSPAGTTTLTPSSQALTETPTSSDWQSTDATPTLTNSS

EphB3(h) = target: T3, EphB3(h)
AMPKα2(h) = AMPKα2(h) (human, UniProt P54646 1-552)
CDK9/cyclin T1(h) = CDK9/cyclin T1(h) (human, UniProt P50750 1-372; O60563 1-726, limits assumed)
Sequence of CDK9/cyclin T1(h) (P50750 whole entry, chain 1 of 2): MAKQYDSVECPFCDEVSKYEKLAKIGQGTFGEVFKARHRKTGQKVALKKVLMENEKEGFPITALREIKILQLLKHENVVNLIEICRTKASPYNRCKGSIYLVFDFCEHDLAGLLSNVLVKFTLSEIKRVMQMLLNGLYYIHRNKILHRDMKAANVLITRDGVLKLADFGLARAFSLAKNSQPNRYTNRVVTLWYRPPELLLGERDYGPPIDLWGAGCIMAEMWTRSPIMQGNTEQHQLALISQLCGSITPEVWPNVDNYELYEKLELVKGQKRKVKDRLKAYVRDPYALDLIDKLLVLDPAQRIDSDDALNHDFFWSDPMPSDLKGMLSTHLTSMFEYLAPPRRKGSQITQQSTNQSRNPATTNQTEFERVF
Sequence of CDK9/cyclin T1(h) (O60563 whole entry, chain 2 of 2): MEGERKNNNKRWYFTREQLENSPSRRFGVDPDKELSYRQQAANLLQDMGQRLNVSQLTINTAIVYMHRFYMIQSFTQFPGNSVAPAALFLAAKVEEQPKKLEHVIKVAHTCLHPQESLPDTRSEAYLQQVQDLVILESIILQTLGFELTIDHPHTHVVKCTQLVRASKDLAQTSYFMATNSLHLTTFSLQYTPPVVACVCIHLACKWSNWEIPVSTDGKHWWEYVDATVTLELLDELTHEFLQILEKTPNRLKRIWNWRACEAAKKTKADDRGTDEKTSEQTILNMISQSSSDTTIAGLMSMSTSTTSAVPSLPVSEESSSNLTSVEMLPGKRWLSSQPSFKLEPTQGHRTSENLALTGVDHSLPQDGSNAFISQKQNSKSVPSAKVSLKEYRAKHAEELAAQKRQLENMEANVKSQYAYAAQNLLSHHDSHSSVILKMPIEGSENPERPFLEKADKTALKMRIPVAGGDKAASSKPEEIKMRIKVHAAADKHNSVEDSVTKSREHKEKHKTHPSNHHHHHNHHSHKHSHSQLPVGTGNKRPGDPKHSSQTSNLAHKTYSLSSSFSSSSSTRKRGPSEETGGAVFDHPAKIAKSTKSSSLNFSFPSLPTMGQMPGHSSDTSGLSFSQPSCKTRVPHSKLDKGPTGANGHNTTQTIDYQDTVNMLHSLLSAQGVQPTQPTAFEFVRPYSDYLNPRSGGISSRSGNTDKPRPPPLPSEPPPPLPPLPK

Itk(h) = target: T4, Itk(h)
PKCθ(h) = PKCθ(h) (human, UniProt Q04759 1-706)
FGFR2(h) = FGFR2(h) (human, UniProt P21802 456-770, limits assumed)
Sequence of FGFR2(h) (P21802 456-770 limits assumed): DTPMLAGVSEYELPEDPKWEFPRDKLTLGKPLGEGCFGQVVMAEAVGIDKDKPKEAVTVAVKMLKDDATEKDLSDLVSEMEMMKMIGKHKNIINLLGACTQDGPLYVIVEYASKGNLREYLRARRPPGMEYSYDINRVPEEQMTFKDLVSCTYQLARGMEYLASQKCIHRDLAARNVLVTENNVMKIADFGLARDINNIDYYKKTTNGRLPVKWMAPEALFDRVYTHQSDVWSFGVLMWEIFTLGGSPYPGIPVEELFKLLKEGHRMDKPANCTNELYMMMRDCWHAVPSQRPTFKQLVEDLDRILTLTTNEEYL

SGK3(h) = target: T5, SGK3(h)
FGFR1(h) = FGFR1(h) (human, UniProt P11362 456-765, limits assumed)
Sequence of FGFR1(h) (P11362 456-765 limits assumed): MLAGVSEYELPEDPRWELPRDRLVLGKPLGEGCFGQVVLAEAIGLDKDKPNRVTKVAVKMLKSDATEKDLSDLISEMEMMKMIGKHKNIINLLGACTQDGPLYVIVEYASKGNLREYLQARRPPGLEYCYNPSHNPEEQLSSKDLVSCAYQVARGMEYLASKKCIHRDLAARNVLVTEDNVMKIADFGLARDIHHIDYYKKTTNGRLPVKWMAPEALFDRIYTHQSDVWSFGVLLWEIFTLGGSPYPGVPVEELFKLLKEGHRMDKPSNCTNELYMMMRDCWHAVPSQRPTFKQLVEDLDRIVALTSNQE

CLK3(h) = CLK3(h) (human, UniProt P49761 1-490, limits assumed)
Sequence of CLK3(h) (P49761 whole entry): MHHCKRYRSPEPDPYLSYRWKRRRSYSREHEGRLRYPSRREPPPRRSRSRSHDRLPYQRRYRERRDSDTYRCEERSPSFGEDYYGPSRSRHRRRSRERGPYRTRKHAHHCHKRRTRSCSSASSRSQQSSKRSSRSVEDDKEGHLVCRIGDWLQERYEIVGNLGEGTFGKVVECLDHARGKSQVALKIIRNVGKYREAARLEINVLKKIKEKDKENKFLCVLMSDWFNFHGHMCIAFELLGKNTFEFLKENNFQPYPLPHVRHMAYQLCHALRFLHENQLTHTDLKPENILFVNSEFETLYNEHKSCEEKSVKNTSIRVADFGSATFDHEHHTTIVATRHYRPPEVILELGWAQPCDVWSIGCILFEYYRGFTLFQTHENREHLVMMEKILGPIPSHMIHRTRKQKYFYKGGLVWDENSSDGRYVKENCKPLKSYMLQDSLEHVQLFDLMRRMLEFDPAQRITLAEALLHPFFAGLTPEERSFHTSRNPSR

Row | Binder | % activity, 100 µM (SIK(h)) [%] | % activity, 100 µM (PKBγ(h)) [%] | % activity, 100 µM (MKK6(h)) [%] | % activity, 100 µM (RIPK2(h)) [%] | % activity, 100 µM (Abl(Q252H)(h)) [%] | % activity, 100 µM (CDK3/cyclinE(h)) [%] | % activity, 100 µM (Fms(h)) [%] | % activity, 100 µM (GSK3α(h)) [%] | % activity, 100 µM (EphB3(h)) [%] | % activity, 100 µM (AMPKα2(h)) [%] | % activity, 100 µM (CDK9/cyclin T1(h)) [%] | % activity, 100 µM (Itk(h)) [%] | % activity, 100 µM (PKCθ(h)) [%] | % activity, 100 µM (FGFR2(h)) [%] | % activity, 100 µM (SGK3(h)) [%] | % activity, 100 µM (FGFR1(h)) [%] | % activity, 100 µM (CLK3(h)) [%]
1 | FAKLAARLYRKALARQLGVAA [MMI-0300] | 66 | 20 | 48 | 97 | 82 | 94 | 45 | 157 | 62 | 54 | 91 | 77 | 88 | 14 | 10 | 55 | 61
2 | KAFAKLAARLYRKALARQLGVAA [MMI-0400] | 68 | 41 | 44 | 98 | 98 | 92 | 37 | 164 | 47 | 58 | 235 | 63 | 76 | 18 | 8 | 59 | 84

Source: US20140072613A1 (published 2014)
